In paper PMC10842878 (Peptides, 2023):
Entries after “also recorded” stand apart in the source; their conditions may differ.

Experiments:
[1] = format: physicochemical; conditions: 150 μM peptide, 50 mM sodium phosphate buffer pH 7, 37°C, 2 weeks
[2] = H2O; cited from earlier work

Compound: HSQGTFTSDYSKYLDSrRAQDFVQWLMNTZ [compound 7]
- Chemical stability (% of original concentration retained in solution) [1]: highest chemical stability; also recorded: highest % concentration retained

Compound: C/C1=C2/[N-]C([C@H](CC(N)=O)[C@@]2(C)CCC(=O)NCC(C)O)[C@]2(C)N=C(/C(C)=C3N=C(/C=C4N=C1[C@@H](CCC(N)=O)C\4(C)C)[C@@H](CCC(N)=O)[C@]\3(C)CC(N)=O)[C@@H](CCC(N)=O)[C@]2(C)CC(N)=O.[C-]#N.[C-]#N.[Co] (some centres unmarked) [Cbi, dicyanocobinamide]
- Water solubility [2]: 400 mg/mL
